Experimental data taken from patent US20100003195A1 (published 2010).
Bridge positions count the residues as written; N and C are the ends. Primed or numbered codes have the meaning given here. Ends that are not written are not given here. I, II: the chains in the order shown. * marks the point of attachment. ivDde′ = (4,4-dimethyl-2,6-dioxocyclohex-1-ylidene)-3-methylbutyl protecting group, CC(C)CC(=C1C(=O)CC(C)(C)CC1=O)*

Columns and labels:
[1] = target: T1, KDR on HUVECs (human, UniProt P35968 20-1356); assay: cell-based or functional assay
[2] = target: T2, human KDR-Fc chimeric fusion (R&D Systems #357-KD-05) (human, UniProt P35968 20-764); assay: BIAcore steady state, KD1, KDR-Fc at 6000 RU
T2 construct: bought; also called KDR Fc fusion
Method: (§1) All samples were injected in duplicate. […] Following a 10 minute dissociation, any remaining peptide was stripped from the KDR surface with a quickinject of 50 mM NaOH+1 M NaCl for 12 s at 75 μL/min. Sensorgrams were analyzed using BIAevaluation software 3.1 and a hyperbolic double rectangular regression equation in SigmaPlot 6.0.

[3] = target: T2, human KDR-Fc chimeric fusion (R&D …); assay: BIAcore steady state, KDAV, KDR-Fc at 3000 RU
Method: as §1

[4] = target: T2, human KDR-Fc chimeric fusion (R&D …); assay: BIAcore steady state, KD1, KDR-Fc at 3000 RU
Method: as §1

[5] = target: T2, human KDR-Fc chimeric fusion (R&D …); assay: BIAcore steady state, KD1, KDR-Fc at 1600 RU
Method: as §1

[6] = target: T2, human KDR-Fc chimeric fusion (R&D …); assay: BIAcore steady state at the higher immobilization densities
Method: as §1

[7] = target: T2, human KDR-Fc chimeric fusion (R&D …); assay: BIAcore steady state, KDAV, KDR-Fc at 1600 RU
Method: as §1

[8] = target: T2, human KDR-Fc chimeric fusion (R&D …); assay: BIAcore steady state, KDAV, KDR-Fc at 6000 RU
Method: as §1

[9] = target: T3, KDR on KDR-transfected 293H cells (human, UniProt P35968 20-1356); assay: competitor 125I-VEGF (300 pM), KDR-transfected 293H cells, peptide 0.3 µM
T3 construct: whole, on cells; also called KDR-expressing cells; KDR-transfected cells

[10] = target: T1, KDR on HUVECs; assay: cell-based or functional assay; remark: listed apart in the source
[11] = target: T3, KDR on KDR-transfected 293H cells; assay: competitor 125I-VEGF (300 pM), KDR-transfected 293H cells, peptide 30 µM
[12] = target: T3, KDR on KDR-transfected 293H cells; assay: radioligand binding, 1-4 µCi/mL, KDR- vs mock-transfected 293H cells
[13] = target: T3, KDR on KDR-transfected 293H cells; assay: Tc-labeled dimer on KDR- vs mock-transfected 293H cells

T2 sequence (P35968 20-764, change not shown): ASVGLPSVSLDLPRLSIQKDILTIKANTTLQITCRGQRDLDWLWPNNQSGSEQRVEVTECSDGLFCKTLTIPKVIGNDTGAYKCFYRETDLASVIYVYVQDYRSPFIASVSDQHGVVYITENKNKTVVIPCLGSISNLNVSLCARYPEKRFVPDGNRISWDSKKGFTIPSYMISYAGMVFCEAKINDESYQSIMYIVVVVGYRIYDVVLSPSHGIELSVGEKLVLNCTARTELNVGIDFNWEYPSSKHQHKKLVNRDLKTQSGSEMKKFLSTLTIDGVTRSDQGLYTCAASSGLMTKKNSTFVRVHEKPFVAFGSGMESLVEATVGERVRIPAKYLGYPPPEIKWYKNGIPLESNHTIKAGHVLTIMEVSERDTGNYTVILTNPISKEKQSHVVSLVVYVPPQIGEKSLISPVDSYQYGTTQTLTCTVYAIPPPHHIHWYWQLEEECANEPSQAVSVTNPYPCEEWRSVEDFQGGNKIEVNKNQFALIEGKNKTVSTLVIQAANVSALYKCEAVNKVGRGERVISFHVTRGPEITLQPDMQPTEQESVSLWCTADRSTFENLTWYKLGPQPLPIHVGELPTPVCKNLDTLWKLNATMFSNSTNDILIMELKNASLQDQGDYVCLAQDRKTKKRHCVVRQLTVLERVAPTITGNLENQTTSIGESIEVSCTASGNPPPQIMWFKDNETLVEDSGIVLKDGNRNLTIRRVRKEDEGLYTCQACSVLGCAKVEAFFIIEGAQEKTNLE
T3 sequence (P35968 20-1356): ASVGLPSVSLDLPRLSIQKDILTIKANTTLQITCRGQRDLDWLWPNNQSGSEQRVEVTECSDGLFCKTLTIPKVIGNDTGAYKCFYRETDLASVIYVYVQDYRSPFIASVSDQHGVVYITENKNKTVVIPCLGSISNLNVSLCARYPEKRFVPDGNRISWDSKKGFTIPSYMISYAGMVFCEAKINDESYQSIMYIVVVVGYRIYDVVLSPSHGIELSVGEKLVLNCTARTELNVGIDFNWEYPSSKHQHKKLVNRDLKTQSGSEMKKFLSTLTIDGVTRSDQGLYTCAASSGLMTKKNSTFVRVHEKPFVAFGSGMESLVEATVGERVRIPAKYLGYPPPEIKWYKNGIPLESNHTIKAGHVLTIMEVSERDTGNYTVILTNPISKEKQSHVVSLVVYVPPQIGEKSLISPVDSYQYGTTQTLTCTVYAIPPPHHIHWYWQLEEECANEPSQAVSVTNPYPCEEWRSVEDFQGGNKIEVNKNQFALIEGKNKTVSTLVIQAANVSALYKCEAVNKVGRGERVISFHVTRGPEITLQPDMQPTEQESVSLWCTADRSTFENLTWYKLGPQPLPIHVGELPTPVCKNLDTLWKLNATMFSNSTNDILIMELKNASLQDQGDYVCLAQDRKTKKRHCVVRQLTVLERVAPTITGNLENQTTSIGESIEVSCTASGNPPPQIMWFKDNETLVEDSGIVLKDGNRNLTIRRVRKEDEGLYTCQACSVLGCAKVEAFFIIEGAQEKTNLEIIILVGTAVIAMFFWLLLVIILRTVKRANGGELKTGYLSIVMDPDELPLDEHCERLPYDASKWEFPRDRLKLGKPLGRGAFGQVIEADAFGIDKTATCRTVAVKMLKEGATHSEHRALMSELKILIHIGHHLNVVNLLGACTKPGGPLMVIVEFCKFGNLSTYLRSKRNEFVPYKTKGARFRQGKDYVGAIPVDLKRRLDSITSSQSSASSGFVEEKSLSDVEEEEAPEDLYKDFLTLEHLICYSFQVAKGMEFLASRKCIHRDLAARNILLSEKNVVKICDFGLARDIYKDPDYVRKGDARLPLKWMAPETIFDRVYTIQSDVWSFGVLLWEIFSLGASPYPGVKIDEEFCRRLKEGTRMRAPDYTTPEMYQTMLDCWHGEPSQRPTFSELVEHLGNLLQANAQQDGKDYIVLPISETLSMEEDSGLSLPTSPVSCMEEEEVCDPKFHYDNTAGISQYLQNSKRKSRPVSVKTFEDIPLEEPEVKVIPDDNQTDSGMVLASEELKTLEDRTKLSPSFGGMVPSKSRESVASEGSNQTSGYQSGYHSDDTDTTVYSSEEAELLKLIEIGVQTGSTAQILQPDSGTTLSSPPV
T1 sequence (P35968 20-1356): as above

B1: dimer 25 (D25) (peptide)
peptide 1: Ac-AGPTWCEDDWYYCWLFGTGGGK-NH2
peptide 2: Ac-GDSRVCWEDSWGGEVCFRYDPGGGK-NH2
modifications: disulfide I:6-I:13, II:6-II:16 (inferred); not fully specified (bridges); also: dimer joined by JJ-Glut-Lys linker
IC50, VEGF-induced HUVEC migration [1]: 5 nM

B2: dimer 6 (D6) (peptide)
peptide 1: GDSRVCWEDSWGGEVCFRYDPGGGK
peptide 2: AGPTWCEDDWYYCWLFGTGGGK
modifications: disulfide I:6-I:16, II:6-II:13 (inferred); also: heterodimer made with glutaric acid bis-NHS ester
notes: heterodimer made with glutaric acid bis-NHS ester
Kd [2]: 17 nM | Kd [3]: 0.665 nM | IC50, VEGF-induced HUVEC migration [1]: ~12.5 nM | Kd [4]: 25.5 nM | Kd [5]: 46 nM | Kd [6]: ~0.6 nM | Kd [7]: 1.5 nM | Kd [8]: 0.662 nM

B3: SEQ ID NO:294 (peptide)
peptide: Ac-GDSRVCWEDSWGGEVCFRYDPGGGK-NH2
modifications: disulfide 6-16 (inferred); also: fluorescein on C-terminal Lys in FP only
% inhibition of 125I-labeled VEGF binding [9]: 52.3% | VEGF-induced KDR phosphorylation, HUVEC immunoblot [10]: ≥ 50 % inhibition at 10 µM | % inhibition of 125I-labeled VEGF binding [11]: 96.3%

B4: dimer 17 (D17) (peptide)
peptide 1: AQDWYYDEILGRGGRGGRGGK
peptide 2: VCWEDSWGGEVCFRYDPGGGK
modifications: not fully specified; N-acetyl; C-terminal Lys(JJ-Glut) amide; N-acetyl; J spacer within the chain
IC50, VEGF-induced HUVEC migration [1]: ~250 nM

B5: SEQ ID NO:267 (peptide)
peptide: Ac-AGWLECYAEFGHCYNFGTGGGK-NH2
modifications: disulfide 6-13 (inferred); also: fluorescein on C-terminal Lys in FP only
VEGF-induced KDR phosphorylation, HUVEC immunoblot [10]: ≥ 50 % inhibition at 10 µM

B6: SEQ ID NO:269 (peptide)
peptide: Ac-AGWIECYHPDGICYHFGTGGGK-NH2
modifications: disulfide 6-13 (inferred); also: fluorescein on C-terminal Lys in FP only
VEGF-induced KDR phosphorylation, HUVEC immunoblot [10]: ≥ 50 % inhibition at 10 µM

B7: 125I-labeled D5 (peptide)
peptide 1: Ac-VCWEDSWGGEVCFRYDPGGGK-NH2
peptide 2: Ac-AGPTWCEDDWYYCWLFGTGGGK-NH2
modifications: disulfide I:2-I:12, II:6-II:13 (inferred); not fully specified (bridges); also: dimer joined by JJ-glutaryl-Lys linker, 125I Bolton-Hunter label, site not given here
notes: also called dimer 5
binding result [12]: binds

B8: SEQ ID NO:306 (peptide)
peptide: Ac-AQAFPRFGGDDYWIQQYLRYTDGGK-NH2
modifications: also: fluorescein on C-terminal Lys in FP only
VEGF-induced KDR phosphorylation, HUVEC immunoblot [10]: ≥ 50 % inhibition at 10 µM

B9: SEQ ID NO:305 (peptide)
peptide: Ac-AQEPEGYAYWEVITLYHEEDGDGGK-NH2
modifications: also: fluorescein on C-terminal Lys in FP only
VEGF-induced KDR phosphorylation, HUVEC immunoblot [10]: ≥ 50 % inhibition at 10 µM

B10: Tc-labeled D18 (scrambled derivative of D10) (peptide)
peptide 1: Ac-APGTWCDYDWEYCWLGTFGGGK-NH2
peptide 2: Ac-GVDFRCEWSDWGEVGCRSPDYGGGK-NH2
modifications: disulfide I:6-I:13, II:6-II:16 (inferred); not fully specified (some residues, bridges); also: 99mTc chelated by PnAO6, J not defined
notes: control; also called dimer 18
binding result [13]: no binding (tested: up to 10 µCi/mL)

B11: SEQ ID NO:366 having a blocked K (peptide)
peptide: Ac-GDWWECK(ivDde′)REEYRNTTWCAWADPGGGK-NH2
modifications: disulfide 6-17 (inferred)
VEGF-induced KDR phosphorylation, HUVEC immunoblot [10]: ≥ 50 % inhibition at 10 µM

B12: SEQ ID NO:277 (peptide)
peptide: AGPTWCEDDWYYCWLFGTGGGK
modifications: N-acetyl; C-terminal amide; fluorescein on C-terminal Lys in FP and in Table 15
IC50, receptor activation assay [1]: 0.1 µM | % inhibition of 125I-labeled VEGF binding [9]: 81% | % inhibition of 125I-labeled VEGF binding [11]: 104%

B13: SEQ ID NO:307 (peptide)
peptide: Ac-AQGDYVYWEIIELTGATDHTPPGGK-NH2
modifications: also: fluorescein on C-terminal Lys in FP only
VEGF-induced KDR phosphorylation, HUVEC immunoblot [10]: ≥ 50 % inhibition at 10 µM

B14: SEQ ID NO:301 (peptide)
peptide: Ac-GDPDTCTMWGDSGRWYCFPADPGGGK-NH2
modifications: disulfide 6-17 (inferred); also: fluorescein on C-terminal Lys in FP only
VEGF-induced KDR phosphorylation, HUVEC immunoblot [10]: ≥ 50 % inhibition at 10 µM
